Assay: soluble fraction after stress (log2 fold change); higher = more stays soluble; pooled small domains, quantitative proteomics
Settings: stress: 75 degC
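Also: 20 min heating vs room temperature control held 20 min.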

Row | Sequence | soluble fraction (log2)
1 | HMQGATVYIKSDDIGKTTNEQGSFNFDKLKKNRYTLEISFIGYETKNLQAYTDRENIVQLNRKS | -0.307
2 | HMQGEVPYSQFLTEVDRGDVQSVVIEGNNISGFYKNSSTAFTVVAPDDPKLVERLMEQGVEVKARPV | 0.112
3 | HMQGEVVTNRSVIDMSRAGLSADIIRAKILRSDTNFDVTAKALIELKESGVPDDIIALMLERADS | 0.00604
4 | HMQGIPVTVTAERANLRSGPGTSFDKLGQVVQGDVLTLLEVQNDWYKVKTAEGKTAFVAAYLVNSP | -0.269
5 | HMQGQADFTQGIANFTQYPVGSRITVFTLEGRRVAVVEIGKDGTAQLDMRNKPAGVYIVNTGKQSFKWLK | -2.65
6 | HMQGRIYLNPDLAEKLRAQYAAYPHWSYLLHTENLGALVRKTESLGPMPSYSTILRYMHANDMRKRNKP | -1.78
7 | HMQGVNLTETEKNFIAQVLSPLLKQGQSLYQIRTNHPEIKLSVKTLYTYIESGIFKESGINNFSLRRQ | -0.122
8 | HMQILNVFSKHGIKPISPQIGDKFDPQLHEAMFEAPVPGTKAGDIIEVSSEGFMLYDRLLRPAHVGVSSN | -0.0306
9 | HMQILPAFLPENPELRARLANHSLEELTEILKQYKTLHNSTDVDTVKRAIRAIEIEEYYAVHPV | -0.731
10 | HMQINLKQSSDEELVKIITVQVHHYEPHTVKAAEAEIERRGIDKMRMAHLVKKVAQENTAVQEIQD | 0.297
11 | HMQISDDSELIKIVDNILANSQKQIDDYHNGKTNLFGFFVGQVMKETKGKANPVKVNEILKDKL | -0.00828
12 | HMQISDSSLIAKTVATVILENPEAVSDYLGGKHSVVRFMVGQIMKKTQGKANPKMATEMLETALNDL | -1.88
13 | HMQISDTTELSTLITKVLSEQSDALVDFKNPKKQKQVIGYLTGQVLRASQGKANPGLVRSLLEEQLSALDS | 0.0724
14 | HMQISMQNIASVKIDDLSDEQIQEFSTKYTAAGYSFPDVENVAKQKGMPSSEIEKLRQRVLTAQNTQEK | 0.283
15 | HMQISSSEVLEKVVDEILSANPKSIEDYKNGKLQAAGFLMGQVMKATKGQANPAVAKELIEAKLKD | 0.461
16 | HMQISYDVPNLIGKSYEEVMTDPSILGEHFTVVLGETKTDEDTDAGVILHQDPAADSKVQDEVTPITVTVS | 0.374
17 | HMQITDTEAIATTLDEIIAANPKEWERLKAGQEQLVKFFVGQVMRVTKGRANPQVVNDLLKERL | -0.346
18 | HMQITNEGQIKLVISEVLNENQEQKKQYLSGKEQVLGYLIGKVMQKTKGKANPKLVNDLMIKELS | -0.135
19 | HMQITSTDEIEKMIDELIAANPEQTKQYQNGNHKVAGWFVGQMMKASKGKANPQMVNNLLQKKL | 0.278
20 | HMQITTVSPKNYAEAELIGQRFREGNPVVMDLSKLDSDLGQRLVDFASGLVFALNGTVERIAKKVFLLSP | -1.37
21 | HMQIVHKHLQLQPDQGALRAALYSHKAVVAEQVNEQGAINLEIKLAESDFLRLLKSSGLKLQDLVSLS | -1.35
22 | HMQKAQEYILVDIKGEVQTPGVYKLPVNSRVIDAIEASGGLTKKAVTTYINLSKTLKDENVIIINKKSEL | -0.59
23 | HMQKITPDNWTYIRSLIRQKWSPDQIDQWLKKHPDVGFTVSRETIYQYVKEDRQKDGDLYLSLRRAGKSY | -2.18
24 | HMQKLKINKYKDPKGEIRYYIASTIRNGNKSSTHNLLSLGKHSDLLKEHSDVEAYLKERLNEAMESGI | -0.0843
25 | HMQKPDIEVDFAEGDMVVVTGGAWKDTAGVITGINMQKQTVTINVELFGRETPVEISFTEIKKA | -0.117
26 | HMQKVPDAFKAEQVQTLITRLGVSRAELARTLDVSLSTVNKWASGAVEPKGSALVLLKVLWMHGFKAL | -2.85

Row | Sequence | soluble fraction (log2)
27 | HMQLDDDQKEELILKLIDSLDTTKKGAPLTELAREAAKSNIGESELEEITTSLLDKGLVYEPTIGKMKR | 0.394
28 | HMQLDLNENEKIIFEILQNNKTMQLSNLKTQTELSNKGWDKAIKSLTKQGLAKVSKIDNELIVEFL | -0.466
29 | HMQLKFTDLRKEILRMIWEGHGPQKAYDLLNKLQQTNPSAKPATVYRALDFLIGNGFIHKVASLNAFVG | -0.59
30 | HMQLKKDTILSYIEEKLIDSYNSNKGFTTQEISVALNMQRTNVSAILNNLVKENKLVKTKGKPVRYFLSG | -0.636
31 | HMQLTPAQHAILAHALEHSDGKIVWFPDNIKGGARKKVLDGLLNRALITTDGTDWFVAAEGYDAMGR | -0.386
32 | HMQLTVAVLIKNISKGQVISQGFLGFEARPERQIRGAYTNISEVLGRKAKSNIAVGTILKARHLDT | -2.87
33 | HMQNAMQKELIDAFQKAYPDLDITKIELVYGTYYEVEAMNSTTEFTYRYDQNSKTFILAEQDNADP | -0.203
34 | HMQNELAEARSQLAERKNIDQAKLILMKKRNISEPEAYKLLRSHAMQTNRRVAEVAESIITAESLLG | -0.0692
35 | HMQNGNLVDVYLNWRGKYYAIKMFFPNSKMPRRSDVQDQIVKVYPDARVQSFQVSKYVPGQPFL | -2.62
36 | HMQNLSELAYVNLRDALMQGQMKPGEELPLRPISRSFGISATPMREALLRLVTESALEMDSRGRISVP | -0.347
37 | HMQNPYDTLGVSRDSTDAEIKKAYRKLAMEHHPDKGGDSQRFAEINNAYDNIKDMSSRQNFENDPSNFQ | 0.266
38 | HMQNVFARKNLTSVSVDKLGEEEILLFKQSFESKNLTSSEALRDLSKKGMSEAELRKLKVRLTQL | -0.287
39 | HMQNWFADPKFEMFEDYGDAQSFYDTETKNIYVVMAEYGQKGSNTIQEITPDSEEYIPNYEKYKEYMENK | 0.214
40 | HMQNYLEFIGNELKALTSIPSPSGYTKDVAAYLMKTLSDMGYEPQLSNKGNVFVTIGGEGNPLVLAAHVD | 0.0285
41 | HMQNYLEVLRLHELGMGQRKIAQQVHTSRDTIRKIIAIAENQGLNYSNLIGKTDNELSKVFG | -0.622
42 | HMQPAGEGAILRYLSSGAVKGIGPVMAREIVRRFGTDTFRVMEQEPEKLLKVKGITEQRLQTIMESYQD | -0.198
43 | HMQPDPAFVAWVDANPWYKENRTLRALVHDYAEEVKRQEPALIGTAFLDRVKQLVQSEHPELFD | -0.234
44 | HMQPETIEDATNLYLEAARATLQLIEQNNVIARDVKRLLEHLDNDMARIETLLAEMLSRRDHWLRHIH | 0.148
45 | HMQPIQPNQAKYLDGLSSKYKGKGNHSQAAQLTALRDALNAGDHAKAREIYDKLDYEPQAEAAH | 0.364
46 | HMQPNVTRERILAAAMTVFAQKGWQKTSLDEVAAAAGMTKGAIYWHFRNKNDLFFALLDARLQRD | -2.16
47 | HMQQAVTMQKPGRLLRNADGNGGAVRDLDVGMMLYPTGNRSELMWEVDDELGNRGWVNSTLFGLS | 0.013
48 | HMQQDGSSSLGENMLNQELQARGVVPSEIPQEVWERVIQEAGKKSKREIYADIGLGRSLAAGFAQRLAA | 0.145
49 | HMQQDVLKLKSGGNYKGEYINIESAYVLFKPEGGNATQRIKVNEIQMLKLADGTEVIFGGRVK | -0.237
50 | HMQQEPNFYIVDGNTNQIVDRYYAPDSNVAHQYLGQWRQQHDPQETGNYRYGRLSSETEERYRNLAA | 0.22
51 | HMQQFGANVRLIRKARQMSIKQLSELSGVSQTMISEVERGLKIPTIDVAGKIAAALGIDLTNLMG | -2.16
52 | HMQQIQILPDGKIKLPDLSGTNMREAIEILHKGGLRMKPYGSGNAYQQKPAAGETVASGTTVEVLSL | 0.151

Row | Sequence | soluble fraction (log2)
53 | HMQQLAEQIPTDRPYISIAEAVVLFGISRDTIYRQIRKGNIPAVNLGERLTRISRIHIEAMFPKV | -0.305
54 | HMQQNYREMHKVKKGETLFGIARRYEITVDQLIKANPDMNAVGYELKKGDYIFIPYPDGQKP | -0.427
55 | HMQRAEQLPAELAAVFRAETEAWGFFERQPPGYQRVAIHWVASAKQEATRLRRLAKLIEESAAGRR | -1.61
56 | HMQRDTIAISAIPTAIKTYLSSTYPTDTLVHAFVNKDQSIVVISKNIDFYATSFSTANAFIKRIQLPA | -1.41
57 | HMQRFIHITVSDVHQATRLLEEEMQLTNYSVAENNAIKIFEFTYEPQEINHLFGKNGIEVSSLFIGS | -0.0559
58 | HMQRNLILKLDTDQPEIYKKLESIFVEINGLLVPFFIEKIIWSKQDSLNILFKNSSEALVEQLIGKNVFLP | 0.2
59 | HMQRSVNYSELHEIKERVFDALYSSPMSMPDLLAWLKGDEEHTISVIRLMQDNGDIEMGEDGRLAVV | -0.383
60 | HMQSISLEEAKSAALDDAQLGIDEVEFLKTERNTDGDTSYYDIQFLVNGTIYKYQINTETGAILHVDYEA | 0.0632
61 | HMQSITAGDKVRVKNYTVSGGKKRGKVYGGAGTFVVYYEKYDVISVTGDRVVIGIGKAVTAAVHIDDLEK | -2.07
62 | HMQSKSEINELPKSIHMAFSPKNFELFIDNLKINEIDFSNWKGELNTIQERVDGQRQIWIQDPQGYWIEIN | -0.0964
63 | HMQSLIVPVPKPEDDPVYKDGIKQDPVEVVSIWLGRDYLNMILNLKVSTGKGHTFGIVEDVS | -0.157
64 | HMQSNDTAEIEAVVKEIMAANERVVNDYRSGNTKVVSFFVGQVMKATKGKANPKVVNEVLAKLLK | -0.823
65 | HMQSVPELDQQFKIAIENNDFIKLAQLKEQGYHPSKEVMQSLSNTTPNNTIIAVQKIFGLKA | 0.546
66 | HMQSVSANSVQKQLADIIDGEDKTHPLSDRELTEKLVAQGVQISRRTVAKYREAMGIPGASGRKQ | -0.0543
67 | HMQTAAANPSPESILQAREAAGLSQSEAGALIYSGLRSWQHWEWGTRRMHPGLFELFLKKTGQI | -1.83
68 | HMQTKMVYSDLVNSIKSEQVSSMLVSGNTVTVTLTNGDKAKVKIPSLDTLQADVGKEMNDQMDKGTLKQE | 0.18
69 | HMQTKNYVYFNNTENWSTVNVYVWSSKDSTYMSWPGKAMESIGNNTYRFELPNGAEYAIFNNGSAQTVD | -0.335
70 | HMQTKSDMVYHRVREDIVNGVFAPGERLLISAVAKQYGVSEIPVREAFRVLSQEGFLKTRPNSGFVVS | -0.44
71 | HMQTMTAGERREAILRELEQAQGPVSASALAKRFHVSRQAVVGDVAMLRALNSPIAATPRGYVLTR | -0.322
72 | HMQTMTDDQVMQYVISQQEKGATQQDIVSKLLQKGVTVDQMRRIRKKYEAQQSQPGALDLTGSS | 0.654
73 | HMQTNEAIINQAVQAAEAQNITTRSQAVDALKANGMTEAQARQLAVQRGISYDQLINELFPME | 0.0149
74 | HMQTPVTVGDTMPNLIGTPKRLLLELLNRTDITVKLTGDGYVTAQSPAAGTPIAKGMIIELSL | -2.17
75 | HMQTQVEVLVKYVLEDGTVYKEDKVSADIGAILDSGDLPMLSNDMKFIDDFLFYEVKESDNVIERKVAKLV | -0.782
76 | HMQTQYIVDTKTTLLVRTGPGKSNSQFGRLKNGETINVYAIKNGWAEISYNGKTGYVSEQYIKLA | -3.59
77 | HMQTTDTGAIETIVDELMAANPDKVEAYRGGKTGLQGFFMGQVMKQLGGQGNPKVISAIVTEKLE | 0.603
